One molecule from CN113234166A (SHENZHEN INNOVA NANOBODI CO LTD, dated 2021) can be followed below.

This experiment has as its target T1, 血清标本中的AFP抗原 (UniProt P02771 19-609).
T1 construct: also called 质控血清AFP; 标准血清中的AFP
T1 sequence (looked up): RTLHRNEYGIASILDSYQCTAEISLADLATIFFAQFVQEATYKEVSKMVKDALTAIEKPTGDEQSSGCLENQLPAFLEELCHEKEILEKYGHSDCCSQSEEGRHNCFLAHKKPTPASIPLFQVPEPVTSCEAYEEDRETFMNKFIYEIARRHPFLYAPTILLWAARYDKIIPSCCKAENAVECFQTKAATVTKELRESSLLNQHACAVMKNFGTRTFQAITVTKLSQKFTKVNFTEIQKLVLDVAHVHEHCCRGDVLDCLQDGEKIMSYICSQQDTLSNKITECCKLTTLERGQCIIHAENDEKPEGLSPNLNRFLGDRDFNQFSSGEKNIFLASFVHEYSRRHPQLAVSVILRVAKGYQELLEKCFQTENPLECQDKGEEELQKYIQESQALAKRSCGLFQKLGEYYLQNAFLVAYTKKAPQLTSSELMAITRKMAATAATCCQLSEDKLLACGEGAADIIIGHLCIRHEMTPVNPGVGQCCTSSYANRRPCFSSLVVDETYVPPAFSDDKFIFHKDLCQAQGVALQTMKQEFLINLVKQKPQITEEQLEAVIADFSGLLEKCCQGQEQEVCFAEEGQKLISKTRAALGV
As to the kind of experiment: double-antibody sandwich chemiluminescent immunoassay, detection antibody.

B1: 带有化学发光区序列的纳米抗体1C5-HAP (other)
chain: QVQLQESGGGLVQAGGSLRLSCKASERTFSSYSMAWYRQAPGKKREFVASISWDDERTYYTDSVKGRFTISRPNAKNTVYLQMNSLKPEDTAVYYCAVGGLSDGLGPSYDYWGQGTQVTVSSGGGGSGGGGSGGGGSIIPVEEENPDFWNREAAEALGAAKKLQPAQTAAKNLIIFLGDGMGVSTVTAARILKGQKKDKLGPEIPLAMDRFPYVALSKTYNVDKHVPDSGATATAYLCGVKGNFQTIGLSAAARFNQCNTTRGNEVISVMNRAKKAGKSVGVVTTTRVQHASPAGTYAHTVNRNWYSDADVPASARQEGCQDIATQLISNMDIDVILGGGRKYMFRMGTPDPEYPDDYSQGGTRLDGKNLVQEWLAKRQGARYVWNRTELMQASLDPSVTHLMGLFEPGDMKYEIHRDSTLDPSLMEMTEAALRLLSRNPRGFFLFVEGGRIDHGHHESRAYRALTETIMFDDAIERAGQLTSEEDTLSLVTADHSHVFSFGGYPLRGSSIFGLAPGKARDRKAYTVLLYGNGPGYVLKDGARPDVTESESGSPEYRQQSAVPLDEETHAGEDVAVFARGPQAHLVHGVQEQTFIAHVMAFAACLEPYTACDLAPPAGTTD
notes: Expressed in 293 cells
As for B1, the binding result was “binds”.
